In publication PMC2793005, “Dissecting the Role of Critical Residues and Substrate Preference of a Fatty Acyl-CoA Synthetase (FadD13) of Mycobacterium tuberculosis” (PLoS ONE, 2009):

Molecular target: the molecule itself
Assay: SEC

B1: Fatty Acyl-CoA Synthetase FadD13 (Rv3089) of Mycobacterium tuberculosis, N-terminal 6x histidine tag (enzyme)
chain: MKNIGWMLRQRATVSPRLQAYVEPSTDVRMTYAQMNALANRCADVLTALGIAKGDRVALLMPNSVEFCCLFYGAAKLGAVAVPINTRLAAPEVSFILSDSGSKVVIYGAPSAPVIDAIRAQADPPGTVTDWIGADSLAERLRSAAADEPAVECGGDDNLFIMYTSGTTGHPKGVVHTHESVHSAASSWASTIDVRYRDRLLLPLPMFHVAALTTVIFSAMRGVTLISMPQFDATKVWSLIVEERVCIGGAVPAILNFMRQVPEFAELDAPDFRYFITGGAPMPEALIKIYAAKNIEVVQGYALTESCGGGTLLLSEDALRKAGSAGRATMFTDVAVRGDDGVIREHGEGEVVIKSDILLKEYWNRPEATRDAFDNGWFRTGDIGEIDDEGYLYIKDRLKDMIISGGENVYPAEIESVIIGVPGVSEVAVIGLPDEKWGEIAAAIVVADQNEVSEQQIVEYCGTRLARYKLPKKVIFAEAIPRNPTGKILKTVLREQYSATVPK
notes: also called native FadD13; NP; not shown: His6, N-terminal, kept
B1 was tested, and the “stoichiometry N” value was 2.
